Experimental data from publication PMC10786891, “Massively parallel profiling of RNA-targeting CRISPR-Cas13d”.
Where a chain is given by its changes, count along the chain named. Numbers in names are those of the source.

T1: EsCas13d, nuclease-dead (Eubacterium siraeum, UniProt B0MS50, R295A;H300A;R849A;H854A)
T1 sequence: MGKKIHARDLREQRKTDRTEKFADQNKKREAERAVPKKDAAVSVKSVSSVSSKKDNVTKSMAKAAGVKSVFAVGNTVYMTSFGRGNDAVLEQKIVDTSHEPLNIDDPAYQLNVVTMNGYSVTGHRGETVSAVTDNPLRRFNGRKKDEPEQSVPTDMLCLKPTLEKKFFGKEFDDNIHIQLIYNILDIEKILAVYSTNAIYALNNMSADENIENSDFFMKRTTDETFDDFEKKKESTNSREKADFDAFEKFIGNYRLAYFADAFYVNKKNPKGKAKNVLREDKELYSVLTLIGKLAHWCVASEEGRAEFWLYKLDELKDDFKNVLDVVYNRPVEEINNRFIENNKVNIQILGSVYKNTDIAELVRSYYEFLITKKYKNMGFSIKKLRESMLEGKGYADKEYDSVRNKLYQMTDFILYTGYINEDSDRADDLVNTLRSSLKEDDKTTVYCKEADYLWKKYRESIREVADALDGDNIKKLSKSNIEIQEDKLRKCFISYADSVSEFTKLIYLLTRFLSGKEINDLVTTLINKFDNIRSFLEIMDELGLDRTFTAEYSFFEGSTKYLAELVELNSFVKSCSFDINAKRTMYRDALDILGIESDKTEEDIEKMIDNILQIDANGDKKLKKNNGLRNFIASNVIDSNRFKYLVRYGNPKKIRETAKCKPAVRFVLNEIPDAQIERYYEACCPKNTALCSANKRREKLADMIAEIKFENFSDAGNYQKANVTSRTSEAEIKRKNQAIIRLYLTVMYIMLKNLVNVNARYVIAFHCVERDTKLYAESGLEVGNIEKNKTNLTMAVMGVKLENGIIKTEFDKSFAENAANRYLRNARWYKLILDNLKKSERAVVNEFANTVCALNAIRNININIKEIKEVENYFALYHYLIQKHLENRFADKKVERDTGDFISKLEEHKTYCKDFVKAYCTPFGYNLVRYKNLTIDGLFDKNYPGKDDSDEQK

B1: target 3 insC 3' of 7,insA 3' of 6 (mixed)
RNA 1: CACCCGUGCAAAAUUGCAGGGGUCUAAAACGACCUGAAUAUUUCAGAUCAAA
RNA 2: GGGAAUGGAUCCACAUCUACGAAUUCGUUUUUGAUCUGAAAUAUUCCAAGGUCUGCAGAUCGGAAGAGCACACGU
B2: target 3 insU 3' of 22,insA 3' of 6 (mixed)
RNA 1: B1 RNA 1
RNA 2: GGGAAUGGAUCCACAUCUACGAAUUCGUUUUUUGAUCUGAAAUAUUCAAGGUCUGCAGAUCGGAAGAGCACACGU
B3: target 3 insA 3' of 3,insC 3' of 2 (mixed)
RNA 1: B1 RNA 1
RNA 2: B1 RNA 2 with C47A, A48G, A49G, G50A, G51U, U52C
B4: target 3 insU 3' of 6,insC 3' of 3 (mixed)
RNA 1: B1 RNA 1
RNA 2: B1 RNA 2 with C47U, A49G, G51C
B5: target 3 insG 3' of 6,insG 3' of 6 (mixed)
RNA 1: B1 RNA 1
RNA 2: B1 RNA 2 with C47G, A48G
B6: target 3 C6U (mixed)
RNA 1: B1 RNA 1
RNA 2: GGGAAUGGAUCCACAUCUACGAAUUCGUUUUUGAUCUGAAAUAUUUAGGUCUGCAGAUCGGAAGAGCACACGU
B7: target 3 insC 3' of 4,insC 3' of 2 (mixed)
RNA 1: B1 RNA 1
RNA 2: B1 RNA 2 with C47A, A48G, A49C, G51U, U52C
B8: target 3 insC 3' of 4,insA 3' of 1 (mixed)
RNA 1: B1 RNA 1
RNA 2: B1 RNA 2 with C47A, A48G, A49C, G51U, U52C, C53A
B9: target 3 insC 3' of 5,insA 3' of 2 (mixed)
RNA 1: B1 RNA 1
RNA 2: B1 RNA 2 with C47A, A48C, A49G, G51U, U52A
B10: target 3 insC 3' of 5,insG 3' of 5 (mixed)
RNA 1: B1 RNA 1
RNA 2: B1 RNA 2 with C47A, A48C, A49G
B11: target 3 insA 3' of 6,insU 3' of 4 (mixed)
RNA 1: B1 RNA 1
RNA 2: B1 RNA 2 with C47A, A49G, G50U
B12: target 3 insC 3' of 5,insU 3' of 1 (mixed)
RNA 1: B1 RNA 1
RNA 2: B1 RNA 2 with C47A, A48C, A49G, G51U, U52C, C53U
B13: target 3 A5G,A11G (mixed)
RNA 1: B1 RNA 1
RNA 2: B6 RNA 2 with A41G, U46C, A47G
B14: target 3 C1A,G14U (mixed)
RNA 1: B1 RNA 1
RNA 2: B6 RNA 2 with G38U, U46C, C51A
B15: target 3 insA 3' of 7,insG 3' of 2 (mixed)
RNA 1: B1 RNA 1
RNA 2: B1 RNA 2 with C46A, A49G, G51U, U52G
B16: target 1 C2U,G12A (mixed)
RNA 1: CACCCGUGCAAAAAUGCAGGGGUCUAAAACUGAGCGGAUAACCUCUCUAUGG
RNA 2: GGGAAUGGAUCCACAUCUACGAAUUCGUACCAUAGAGAGAUUAUCCGCUUACCGAGAUCGGAAGAGCACACGU

biological target: T1, EsCas13d, nuclease-dead; test: crRNA (strand 1, pre-loaded); Mg2+; 40 mM Tris-HCl pH 7.5, 150 mM NaCl, 6 mM MgCl2, 1 mM DTT, 0.1% Tween-20, 0.2 mg/ml BSA; 25 C; 10 min per concentration, then washed; details: tags: His6-TwinStrep-SUMO cleaved; N-terminal SNAP kept (SNAP-Surface 488); label: 3' end held by stalled T7 RNA polymerase

Binder | Kd [nM]
B1 | 76 ± 14
B2 | 7.2 ± 0.55
B3 | 120 ± 50
B4 | 28.6 ± 2.95
B5 | 23.6 ± 3.2
B6 | 13.2 ± 1.05
B7 | 73 ± 24
B8 | 69.5 ± 28.5
B9 | 15.8 ± 1.6
B10 | 5.57 ± 0.52
B11 | 2.25 ± 0.23
B12 | 10.8 ± 1.25
B13 | 73.5 ± 28.5
B14 | 79 ± 30.5
B15 | 28.2 ± 4.15
B16 | 4.5 ± 0.14
